This is an account of results in PMC6208348.

Like-named read-outs stand apart in the source and are kept apart here.

The target in one assay is Shc1-pTyr317. The assay is described as follows: FP.
A further assay has as its target VCP-pTyr805-tail7. The assay can be described thus: FP.
In the next assay the target is EGFR-pTyr1086. The assay can be described thus: FP.
A further assay addresses Shc1-pTyr239. The assay is described as follows: FP.
In the next assay the target is MidT-pTyr324. The assay can be described thus: FP. To be noted: natural protein.
The target of assay [1] is DnaJ-A1-pTyr381 ∆C peptide (human) (UniProt P31689). The assay can be described thus: FP.
Assay [2] concerns the target DnaJ-A1-pTyr381 ∆N peptide (human) (UniProt P31689). The assay can be described thus: FP.
The next assay deals with EGFR-pTyr954. The assay is described as follows: FP.
The target of the next assay is mini peptide GGpYGG. The assay is described as follows: fluorescence polarisation.

A word on the Kd: it is the equilibrium constant for the complex coming apart. High values mean lower affinity, low ones higher affinity. As to L. dumoffii LeSH2, the equilibrium dissociation constant (Kd) with Shc1-pTyr317 (natural protein) is 9.35 µM; in the assay with VCP-pTyr805-tail7 (natural protein) it was 9.1 µM; with EGFR-pTyr1086 (natural protein), 14.7 µM; in the assay with Shc1-pTyr239 (natural protein), 2.46 µM.
As for L. dumoffii LeSH1a, the equilibrium dissociation constant (Kd) (with MidT-pTyr324; in the assay with Shc1-pTyr317 (natural protein); with VCP-pTyr805-tail7 (natural protein); in assay [1] (natural protein); with Shc1-pTyr239 (natural protein); in assay [2] (natural protein)) was more than 50 µM throughout.
In the case of L. pneumophila LeSH2, the Kd is 8.77 µM with Shc1-pTyr317; 1.09 µM in [1]; 31.4 µM in the assay with EGFR-pTyr1086; 44.6 µM in the assay with EGFR-pTyr954; 3.66 µM with Shc1-pTyr239.
Turning to L. longbeachae LeSH (natural protein), the Kd with mini peptide GGpYGG was found to be 3.6 µM.
For L. pneumophila DoSH C-SH2, the results for the Kd (with EGFR-pTyr1086; in [2]) were 12.5 µM and 31.9 µM, respectively.
For L. anisa LeSH2a (Lani_0711), the Kd worked out at 2.53 µM in the assay with VCP-pTyr805-tail7 (natural protein), 7.98 µM with EGFR-pTyr954 (natural protein) and 3.05 µM with Shc1-pTyr239 (natural protein).
In the case of L. dumoffii LUSH (natural protein), the Kd in the assay with mini peptide GGpYGG came to 0.38 µM. That is a sub-micromolar value.
As for L. waltersii LeSH5 tandem SH2, the dissociation constant (Kd) turned out to be 13.8 µM in the assay with Shc1-pTyr317; 28.7 µM in [1]; 33.5 µM in the assay with EGFR-pTyr1086; 6.17 µM with Shc1-pTyr239; 15 µM in [2].
On to L. anisa LeSH1b (Lani_2495), for which the Kd (in the assay with Shc1-pTyr317 (natural protein); in the assay with VCP-pTyr805-tail7 (natural protein); in assay [1] (natural protein); with Shc1-pTyr239 (natural protein); in [2] (natural protein)) was more than 50 µM each time.
For the substance L. dumoffii LeSH2 (natural protein), the Kd with mini peptide GGpYGG turned out to be 14.7 µM.
In the assay with VCP-pTyr805-tail7, Src SH2 TrM (superbinder) showed an equilibrium dissociation constant (Kd) of 1.2 µM.
Turning to L. anisa LeSH2b (Lani_WP_019234638), the Kd in the assay with Shc1-pTyr317 (natural protein) is 40.6 µM; with VCP-pTyr805-tail7 (natural protein), 31.2 µM; in assay [1] (natural protein), 16.5 µM; with EGFR-pTyr1086 (natural protein) it was more than 50 µM; with EGFR-pTyr954 (natural protein) it was more than 50 µM; with Shc1-pTyr239 (natural protein), 38.1 µM. For the same substance, the dissociation constant (Kd) in assay [2] (natural protein) stood at 22.6 µM.
